For assay [1], the target named is T1, human GABRA2 (SEQ ID NO: 21) (human, UniProt P47869 29-251).
T1 construct: The Biacore method says only 'Diluted GABRA2'; I took it to be the same antigen; also called GABRA2 protein; human GABRA2 antigen
T1 sequence: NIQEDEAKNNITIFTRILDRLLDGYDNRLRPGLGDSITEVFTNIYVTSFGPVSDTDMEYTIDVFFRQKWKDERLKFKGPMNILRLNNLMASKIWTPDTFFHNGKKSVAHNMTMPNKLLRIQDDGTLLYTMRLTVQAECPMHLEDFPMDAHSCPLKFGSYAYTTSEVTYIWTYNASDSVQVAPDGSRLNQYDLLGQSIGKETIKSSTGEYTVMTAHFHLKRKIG
The assay is described as follows: Biacore SPR, antibody immobilized on CM5 chip, GABRA2 as analyte, single-dose kinetics. How it is done:
(§1) Biacore analysis—Antibody was immobilized onto a CM5 sensor chip (Cat No. BR-1005-30) under 25° C. while HBS-EP was used as the running buffer. The sensor chip surface of flow cells 1 and 2 were activated by freshly mixed 50 mmol/1 N-Hydroxysuccinimide (NHS) and 200 mmol/I 1-ethyl-3-(3-dimethylaminopropyl) carbodiimide hydrochloride (EDC) for 200s ([…]). Afterwards, the antibody diluted in 10 mml/l NaAC (pH 4.5) was injected into flow cell 2 to achieve conjugation of 300 Response Unit respectively, while flow cell 1 was set as blank. After the amine coupling reaction, the remaining active coupling sites on chip surface were blocked with 200s injection of 1 mol/l ethanolamine hydrochloride. […] Diluted GABRA2 was injected over the surface as association phase, followed by injecting running buffer as dissociation phase. Data was processed using the Biacore 8K Evaluation software version 1.1. Flow cell 1 and blank injection of buffer in each cycle were used as double reference for Response Unit subtraction.

Assay [2] has as its target T1, human GABRA2 (SEQ ID NO: 21). The assay is described as follows: Biacore SPR, antibody immobilized on CM5 chip, GABRA2 as analyte, single-cycle kinetics. The procedure:
as §1
Background: In SPR one partner is held on a chip, and binding of the other changes the refractive index at the surface.

B1: antibody U6882DH130_13, purified from hybridoma 10C5B9 (antibody, V domains shown)
VH: EVQLQQSGAELVKPGASVKLSCTASGFNIKDTYMYWVKQRPEQGLEWIGRIDPANGNTKYDPKFQGKATITADTSSNTAYLQLSSLTSEDTAVYYCASNYYGSFDYWGQGTTLTVSS
VL: DIQMTQTTSSLSASLGDRVTISCRASQDISNYLNWYQQKPDGTVKLLIYYTSRLHSGVPSRFSGSGSGTDYSLTISNLEQEDIATYFCQQGNTLPPTFGGGTKLEIK
notes: also called U6882DH130_13 Antibody; Antibody from clone10C5B9
Consider B1, for which, in assay [1], binding was characterised by a dissociation constant (Kd) of 0.251 nM; the off-rate (koff) – broadly, the rate constant with which the complex falls apart – came out at 1.58e-05 s⁻¹; the kon (in general, the second-order rate constant of association) came to 62800 M⁻¹ s⁻¹. For the same molecule, in assay [2], the equilibrium dissociation constant (Kd) (usually the equilibrium constant for the complex coming apart) turned out to be 0.388 nM, the koff was 5.42e-05 s⁻¹ and the kon was found to be 140000 M⁻¹ s⁻¹.

The values are drawn from patent publication US20210163591A1 (TEL HASHOMER MEDICAL RESEARCH INFRASTRUCTURE AND SERVICES, published 2021).
